In patent US20240245771A1 (XUZHOU MEDICAL UNIVERSITY, published 2024):

Molecular target: T1, B7H3 target antigen (UniProt Q5ZPR3 29-466, limits assumed)
T1 construct: Control antigen is called 'other biotin-free antigen', which hints that this antigen may be biotinylated; also called B7H3 antigen; B7-H3 antigen
T1 sequence (looked up): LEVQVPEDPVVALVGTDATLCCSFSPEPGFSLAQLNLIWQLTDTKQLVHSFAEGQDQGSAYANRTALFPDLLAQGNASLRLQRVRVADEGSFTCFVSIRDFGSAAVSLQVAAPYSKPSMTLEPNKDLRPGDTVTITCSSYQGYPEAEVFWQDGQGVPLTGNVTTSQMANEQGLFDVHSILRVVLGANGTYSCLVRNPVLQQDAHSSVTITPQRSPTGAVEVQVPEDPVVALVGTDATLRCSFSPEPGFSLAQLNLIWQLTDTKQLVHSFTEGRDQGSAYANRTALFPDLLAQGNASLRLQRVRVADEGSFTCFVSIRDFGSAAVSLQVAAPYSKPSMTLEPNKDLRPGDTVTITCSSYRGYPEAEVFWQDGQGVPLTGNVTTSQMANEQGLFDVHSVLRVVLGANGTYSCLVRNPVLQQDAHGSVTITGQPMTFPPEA
Assay: Biacore SPR, antibody captured on Protein A chip, antigen flowed, Langmuir fit
Procedure: The B7-H3 antigen was allowed to flow over the chip surface using a series of concentration gradients. The binding time was 120 s, and the dissociation time was 120 s. After the cycle dissociation was completed, the biochip was washed with glycine-hydrochloric acid (pH=1.5) buffer, the sample injection was performed at 30 μL/min, and regeneration was performed for 30 s. Reaction signals were detected in real time using a Biacore instrument, and thus binding and dissociation curves were obtained.
The data obtained from the experiment were fitted with the Langmuir model using GE software.

B1: purified B7H3-02 scFv protein (prokaryotic expression, pET-22b) (scFv)
scFv: EVQLFQSGGGLVQPGGSLRLSCAASGFTFSSYAMSWVRQAPGKGLEWVSAISGSGGSTYYADSVKGRFTISRDNSKNTLYLQMNSLRAEDTAVYYCARGVGRGFDYWGQGTTVTVSSSGGGSGGGGSGGGGSDIQLTQSPSSLSASVGDRVTITCRASQSISIYLNWYRQQPGKAPKLLIYAASSLQSGVPSRFSGSGSGTDFTLTISSLQPEDFATYFCQQTYSTPPWTFGQGTKVDIK
notes: The Biacore experiment speaks of 'purified B7H3-02 antibodies' captured on a Protein A chip; also called B7H3-02 scFv antibody; B7H3-02 antibody; not shown: His tag implied (detected with His antibodies, pET-22b vector)
B1 was tested. Which Kd did it give?
The Kd was 27.8 nM.
